Values of other authors, collected in article PMC9180016.

What was measured:
cytochrome c = cytochrome c (UniProt P99999)
p66Shc (Homo sapiens) = p66Shc (Homo sapiens) (UniProt P29353)

UniProt P99999, sequence (P99999 2-105): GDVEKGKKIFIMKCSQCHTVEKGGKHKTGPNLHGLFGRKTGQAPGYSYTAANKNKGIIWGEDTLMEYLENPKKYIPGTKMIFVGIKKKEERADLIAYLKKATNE

Substance | Ki (cytochrome c) [µM] | Kd (p66Shc (Homo sapiens)) [µM]
p66Shc (from UniProt P29353) | 1.43 | –
Mortalin (from UniProt P38646) | – | 0.858
